# Laboratory results as given in PMC9271601 (Structure (London, England : 1993), 2022).
# B1: 1D12 B cell receptor on the donor's B cell (antibody, V domains shown)
# VH: QLVQSGAEVKKPGASVKVSCKASGYTFTGYYLHWVRQAPGQGLEWMGRINPDTGGTNYAQKFQGRVSMTRDMSISTHYMELSRLTSDDTAVYYCATKRGAVTAMVYYYFYGMDVWGQGTTVTVSS
# VL: DIVMTQSPLSLSVTPGEPASISCRSSHSLLHLNGYNYLDWYLQKPGQSPQLLIYLGSNRASGVPDRFSGSGSGTDFTLKISRVEAEDVGIYYCMQALRTPPGLTFGGGTKVDIK
# B2: 315–19-1D12 Fab (Fab, V domains shown)
# VH: B1 VH
# VL: B1 VL
# Assays:
# [1] = molecular target: H3 (A/Texas/50/2012) HA probe (Influenza A virus A/Texas/50/2012 (H3N2), UniProt R4L1D1, strain, biotin (biotin protein ligase, AviTag)); assay: flow cytometry on cells
# [2] = molecular target: H3N2 A/Victoria/361/2011 hemagglutinin trimer, wild type (Influenza A virus A/Victoria/361/2011 …, UniProt A0A097PF39, strain); assay: BLI
Binder,binding result [1],binding result [2]
B1,binds,
B2,,binds
